The supplement of paper PMC6755084

B1: F1*; the commonest letter at each place (parent)
chain: GAGACCGCAACTGAAAAGTTGTTATCACTTGTCGTAAGACACTTTGGATGGGTTGAAGTTCTGCACGTAGAAGCAAAAGGC

Variants of: B1
Experiment: fraction ligated after 30 min (ligated reads / total reads); higher = more ligase activity
Conditions: with F1*sub RNA substrate (template-directed ligation), 42 °C
Description: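 Chip-synthesised pool of F1* ligase ribozyme variants (all single and double substitutions, single, double and triple deletions in the catalytic core and GAA bulge, plus designed variants) was transcribed with T7 and reacted as a pool with excess substrate F1*sub for 30 min at 42 C in 50 mM EPPS pH 8.5, 25 mM MgCl2. Ligated and unligated bands were separated by PAGE, barcoded by RT and deep sequenced; fraction ligated = ligated reads / total reads per variant, relative activity = FL / FL of wild type (0.826). Sequences are the DNA template of the ribozyme.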

Variant | fraction ligated
GAGACCGCAACTGAAAAGTTGTTATCACTAGTCGTAAGACACATTGGATGGGTTGAAGTTCTGCACGTAGAAGCAAAAGGC [T30A T43A] | 0.828
GAGACCGCAACTGAAAAGTTGTTATCACTTGTGGTAAGCCACTTTGGATGGGTTGAAGTTCTGCACGTAGAAGCAAAAGGC [C33G A39C] | 0.833
GAGACCGCAACTGAAAAGTTGTTATCCCTTGTCGAAAGACACTTTGGATGGGTTGAAGTTCTGCACGTAGAAGCAAAAGGC [A27C T35A] | 0.835
GAGACCGCAACTGAAAAGTTGTTATCGCTTGTTGTAAGACACTTTGGATGGGTTGAAGTTCTGCACGTAGAAGCAAAAGGC [A27G C33T] | 0.828
GAGACCGCAACTGAAAAGTTGTTATCCCTTGTCTTAAGACACTTTGGATGGGTTGAAGTTCTGCACGTAGAAGCAAAAGGC [A27C G34T] | 0.815
GAGACCGCAACTGAAAAGTTGTCATCACTTGTCGTAAAACACTTTGGATGGGTTGAAGTTCTGCACGTAGAAGCAAAAGGC [T23C G38A] | 0.815
GAGACCGCAACTGAAAAGTTGTTATCACTTGTCGGAAGTCACTTTGGATGGGTTGAAGTTCTGCACGTAGAAGCAAAAGGC [T35G A39T] | 0.836
GAGACCGCAACTGAAAAGTTGTTATCACTTGTCGTAAGACTCTTTGGCTGGGTTGAAGTTCTGCACGTAGAAGCAAAAGGC [A41T A48C] | 0.73
GAGACCGCAACTGAAAAGTTGTTATCACTTGTCGTCAGAAACTTTGGATGGGTTGAAGTTCTGCACGTAGAAGCAAAAGGC [A36C C40A] | 0.804
GAGACCGCAACTGAAAAGTTGTTATCACTTGTCGTAAGACACTTAGGATGGGTTGTAGTTCTGCACGTAGAAGCAAAAGGC [T45A A56T] | 0.793
GAGACCGCAACTGAAAAGTTGTTATCACTTGTCGTAAGACACTTTGGATGGGTTGAATTTCTGCACGTAGAAGCAAAAGGC [G58T] | 0.834
GAGACCGCAACTGAAAAGTTGTGATCACTTGTCGTAAGACACTTTGGATGGGTTGATGTTCTGCACGTAGAAGCAAAAGGC [T23G A57T] | 0.812
GAGACCGCAACTGAAAAGTTGTTATCACTTGTCGTAAGACACTTTTGCTGGGTTGAAGTTCTGCACGTAGAAGCAAAAGGC [G46T A48C] | 0.127
GAGACCGCAACTGAAAAGTTGTTTTCACTTGTCGTCAGACACTTTGGATGGGTTGAAGTTCTGCACGTAGAAGCAAAAGGC [A24T A36C] | 0.805
GAGACCGCAACTGAAAAGTTGTTATCACTTGACGTAAGACACTTTGGATGGGTTTAAGTTCTGCACGTAGAAGCAAAAGGC [T32A G55T] | 0.826
GAGACCGCAACTGAAAAGTTGTTATCACTTGTCGTAAGATACTTTGGATAGGTTGAAGTTCTGCACGTAGAAGCAAAAGGC [C40T G50A] | 0.567
GAGACCGCAACTGAAAAGTTGTTATCACTGGTCTTAAGACACTTTGGATGGGTTGAAGTTCTGCACGTAGAAGCAAAAGGC [T30G G34T] | 0.796

Variant | fraction ligated
GAGACCGCAACTGAAAAGTTGTTATCACTTGTGGTAAGACACTTCGGATGGGTTGAAGTTCTGCACGTAGAAGCAAAAGGC [C33G T45C] | 0.273
GAGACCGCAACTGAAAAGTTGTGATCACTTGTCGTAAGACACTGTGGATGGGTTGAAGTTCTGCACGTAGAAGCAAAAGGC [T23G T44G] | 0.86
GAGACCGCAACTGAAAAGTTGTTATCACTTGTCGTAAGACAGTGTGGATGGGTTGAAGTTCTGCACGTAGAAGCAAAAGGC [C42G T44G] | 0.841
GAGACCGCAACTGAAAAGTTGTTATCACTTGTCGTAAGACAGTCTGGATGGGTTGAAGTTCTGCACGTAGAAGCAAAAGGC [C42G T44C] | 0.851
GAGACCGCAACTGAAAAGTTGTTATCACTTGTCTTAAGACTCTTTGGATGGGTTGAAGTTCTGCACGTAGAAGCAAAAGGC [G34T A41T] | 0.763
GAGACCGCAACTGAAAAGTTGTTATCACTTGTCGTATGACACTTAGGATGGGTTGAAGTTCTGCACGTAGAAGCAAAAGGC [A37T T45A] | 0.787
GAGACCGCAACTGAAAAGTTGTTATCAGTTGTCGTAAGACACTTTGGACGGGTTGAAGTTCTGCACGTAGAAGCAAAAGGC [C28G T49C] | 0.674
GAGACCGCAACTGAAAAGTTGTTATCACTTGTAGTAAGACACTATGGATGGGTTGAAGTTCTGCACGTAGAAGCAAAAGGC [C33A T44A] | 0.805
GAGACCGCAACTGAAAAGTTGTTATCACTTGTCGTAAGACTCTTTGAATGGGTTGAAGTTCTGCACGTAGAAGCAAAAGGC [A41T G47A] | 0.783
GAGACCGCAACTGAAAAGTTGTTATCACTTGTCTTAAGACACTTTGGATGGGTTGTAGTTCTGCACGTAGAAGCAAAAGGC [G34T A56T] | 0.793
GAGACCGCAACTGAAAAGTTGTTATCACTTGTCGTAAGACACTCTGGATGGGTTGCAGTTCTGCACGTAGAAGCAAAAGGC [T44C A56C] | 0.791
GAGACCGCAACTGAAAAGTTGTTATCACTTGTCGTAAGACACTTTGGAGGGGTTGCAGTTCTGCACGTAGAAGCAAAAGGC [T49G A56C] | 0.109
GAGACCGCAACTGAAAAGTTGTTATCACTTGTCGTTAGACACTTTGGGTGGGTTGAAGTTCTGCACGTAGAAGCAAAAGGC [A36T A48G] | 0.781
GAGACCGCAACTGAAAAGTTGTTATAACTTGGCGTAAGACACTTTGGATGGGTTGAAGTTCTGCACGTAGAAGCAAAAGGC [C26A T32G] | 0.499
GAGACCGCAACTGAAAAGTTGTCATCACTTGTCGTAAGGCACTTTGGATGGGTTGAAGTTCTGCACGTAGAAGCAAAAGGC [T23C A39G] | 0.831
GAGACCGCAACTGAAAAGTTGTTATCACTTGTCGTAAGACACTTTTAATGGGTTGAAGTTCTGCACGTAGAAGCAAAAGGC [G46T G47A] | 0.769
GAGACCGCAACTGAAAAGTTGTAATCACTTGTCGTAAGACACTTTGGAAGGGTTGAAGTTCTGCACGTAGAAGCAAAAGGC [T23A T49A] | 0.791
